In article PMC6446838:

Assays:
[1] = molecular target: full-length KIF5B-GFP with C-terminal Strep-tag (human) (UniProt P33176)
[2] = molecular target: K560-GFP with C-terminal Strep-tag, purified (human) (UniProt P33176)
Chain of K560-GFP with C-terminal Strep-tag, purified (human) (P33176 1-560): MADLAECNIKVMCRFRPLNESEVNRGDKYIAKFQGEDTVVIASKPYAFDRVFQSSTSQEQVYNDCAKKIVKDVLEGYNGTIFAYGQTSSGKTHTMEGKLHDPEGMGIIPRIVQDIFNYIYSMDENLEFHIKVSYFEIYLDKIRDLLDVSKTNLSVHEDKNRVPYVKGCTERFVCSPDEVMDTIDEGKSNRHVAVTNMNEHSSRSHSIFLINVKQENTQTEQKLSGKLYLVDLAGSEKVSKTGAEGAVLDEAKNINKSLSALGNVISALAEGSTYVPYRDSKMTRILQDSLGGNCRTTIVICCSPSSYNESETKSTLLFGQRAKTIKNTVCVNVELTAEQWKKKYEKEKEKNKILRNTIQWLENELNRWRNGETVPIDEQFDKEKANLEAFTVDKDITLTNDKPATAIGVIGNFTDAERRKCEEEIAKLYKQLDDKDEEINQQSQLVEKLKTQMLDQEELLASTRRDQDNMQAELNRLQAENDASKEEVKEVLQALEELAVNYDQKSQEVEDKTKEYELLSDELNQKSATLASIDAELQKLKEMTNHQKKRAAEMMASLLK

Chain of Alexa Fluor 647–labeled SNAP-tag-MAP7, full length (Q14244 whole entry): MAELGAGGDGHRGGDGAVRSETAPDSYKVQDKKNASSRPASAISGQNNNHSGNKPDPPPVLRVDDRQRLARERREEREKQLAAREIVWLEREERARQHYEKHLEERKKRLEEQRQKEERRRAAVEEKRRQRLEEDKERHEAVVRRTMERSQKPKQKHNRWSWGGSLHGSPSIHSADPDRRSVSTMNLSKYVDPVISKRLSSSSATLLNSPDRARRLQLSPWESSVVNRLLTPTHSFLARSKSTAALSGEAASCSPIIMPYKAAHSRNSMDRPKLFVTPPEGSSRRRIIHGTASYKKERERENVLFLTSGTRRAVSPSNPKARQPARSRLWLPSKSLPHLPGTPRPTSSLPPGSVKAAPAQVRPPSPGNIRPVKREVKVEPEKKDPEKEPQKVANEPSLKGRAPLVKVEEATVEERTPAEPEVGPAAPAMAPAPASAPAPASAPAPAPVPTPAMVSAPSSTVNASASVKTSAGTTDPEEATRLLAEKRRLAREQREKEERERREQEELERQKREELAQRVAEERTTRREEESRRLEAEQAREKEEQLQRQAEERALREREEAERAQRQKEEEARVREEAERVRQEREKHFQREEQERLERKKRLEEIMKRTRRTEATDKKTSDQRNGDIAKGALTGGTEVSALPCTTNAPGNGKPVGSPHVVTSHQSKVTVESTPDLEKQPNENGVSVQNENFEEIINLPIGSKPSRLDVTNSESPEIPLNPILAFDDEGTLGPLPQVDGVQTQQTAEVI
Chain of full-length KIF5B-GFP with C-terminal Strep-tag (human) (P33176 whole entry): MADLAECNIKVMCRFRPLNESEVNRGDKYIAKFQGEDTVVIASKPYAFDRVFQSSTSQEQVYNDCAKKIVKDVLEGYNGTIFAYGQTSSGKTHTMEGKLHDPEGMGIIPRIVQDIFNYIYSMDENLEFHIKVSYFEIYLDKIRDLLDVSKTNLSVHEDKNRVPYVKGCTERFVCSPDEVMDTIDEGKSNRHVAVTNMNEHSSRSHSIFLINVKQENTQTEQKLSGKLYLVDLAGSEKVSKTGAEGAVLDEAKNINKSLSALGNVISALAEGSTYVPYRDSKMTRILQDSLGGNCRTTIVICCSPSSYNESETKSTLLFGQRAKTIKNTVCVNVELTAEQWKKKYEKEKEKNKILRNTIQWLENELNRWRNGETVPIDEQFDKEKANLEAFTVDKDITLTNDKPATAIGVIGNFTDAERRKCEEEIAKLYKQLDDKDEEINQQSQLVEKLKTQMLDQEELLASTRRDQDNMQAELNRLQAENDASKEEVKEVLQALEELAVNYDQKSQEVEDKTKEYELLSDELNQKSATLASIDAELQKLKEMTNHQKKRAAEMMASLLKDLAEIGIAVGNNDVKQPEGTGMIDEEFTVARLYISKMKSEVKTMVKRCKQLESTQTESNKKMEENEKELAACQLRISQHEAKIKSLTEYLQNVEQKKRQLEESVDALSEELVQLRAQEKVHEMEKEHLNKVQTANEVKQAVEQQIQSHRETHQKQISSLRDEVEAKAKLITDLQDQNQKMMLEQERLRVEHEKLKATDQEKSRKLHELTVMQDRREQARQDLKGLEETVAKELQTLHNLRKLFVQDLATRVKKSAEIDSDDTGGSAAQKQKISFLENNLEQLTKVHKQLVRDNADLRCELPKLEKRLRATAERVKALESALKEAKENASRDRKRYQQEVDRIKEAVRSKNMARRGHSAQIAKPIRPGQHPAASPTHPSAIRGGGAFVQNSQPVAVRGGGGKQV

## Alexa Fluor 647–labeled SNAP-tag-MAP7, full length (from UniProt Q14244 1-749) (natural protein)
[1]
  events of full-length KIF5B-GFP on dynamic MTs in vitro (short binding events and landing followed by processive movement), with MAP against kinesin alone: > 60 fold
  run length of full-length KIF5B-GFP on dynamic MTs in vitro, with MAP against kinesin alone: 1.6 fold
[2]
  landing frequency of K560-GFP on MAP-decorated dynamic MTs in vitro, increasing MAP concentrations, against K560 alone: < 23.6 fold
  processivity (run length) of K560-GFP on dynamic MTs in vitro: 2 fold
